Test results as given in the supplement of paper PMC9233669.
This sample holds only a part of the variants without activity.

Tests used:
[1] = tested on: biotinyl-Phe-oxazolone; assay: self-aminoacylation, catalytic enhancement (BFO) (fold over background); higher = more active; k-Seq, kA / k0A0; sequences stand for … in GGGAAUGGAUCCACAUCUACGAAUUC…UUCACUGCAGACUUGACGAAGCUG
Procedure, shortened: (§1)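 Each biotinyl-aminoacyl-oxazolone, at 2–1250 μM, was incubated with mutagenized RNA pools (0.43 μM) carrying a 21-nt variable region. The 50 μL reactions contained HEPES/NaCl/KCl/MgCl2/CaCl2 buffer with 5% acetonitrile at pH 6.9–7.0 and ran for 90 minutes at room temperature. After streptavidin capture, RNA was measured by qPCR in triplicate and by Illumina sequencing, and catalytic enhancement was calculated as median kA over the uncatalyzed rate from a pseudo-first-order fit of per-sequence fraction reacted.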

[2] = tested on: biotinyl-Leu-oxazolone; assay: self-aminoacylation, catalytic enhancement (BLO) (fold over background); higher = more active; k-Seq, kA / k0A0; sequences stand for … in GGGAAUGGAUCCACAUCUACGAAUUC…UUCACUGCAGACUUGACGAAGCUG
Procedure, shortened: as §1

[3] = tested on: biotinyl-Ile-oxazolone; assay: self-aminoacylation, catalytic enhancement (BIO) (fold over background); higher = more active; k-Seq, kA / k0A0; sequences stand for … in GGGAAUGGAUCCACAUCUACGAAUUC…UUCACUGCAGACUUGACGAAGCUG
Procedure, shortened: as §1

[4] = tested on: biotinyl-Met-oxazolone; assay: self-aminoacylation, catalytic enhancement (BMO) (fold over background); higher = more active; k-Seq, kA / k0A0; sequences stand for … in GGGAAUGGAUCCACAUCUACGAAUUC…UUCACUGCAGACUUGACGAAGCUG
Procedure, shortened: as §1

[5] = tested on: biotinyl-Trp-oxazolone; assay: self-aminoacylation, catalytic enhancement (BWO) (fold over background); higher = more active; k-Seq, kA / k0A0; sequences stand for … in GGGAAUGGAUCCACAUCUACGAAUUC…UUCACUGCAGACUUGACGAAGCUG
Procedure, shortened: as §1

[6] = tested on: biotinyl-Val-oxazolone; assay: self-aminoacylation, catalytic enhancement (BVO) (fold over background); higher = more active; k-Seq, kA / k0A0; sequences stand for … in GGGAAUGGAUCCACAUCUACGAAUUC…UUCACUGCAGACUUGACGAAGCUG
Procedure, shortened: as §1

| Sequence | self-aminoacylation [1] | self-aminoacylation [2] | self-aminoacylation [3] | self-aminoacylation [4] | self-aminoacylation [5] | self-aminoacylation [6] |
| --- | --- | --- | --- | --- | --- | --- |
| CUACUUCAAACAACCGGUCCG [Fam1A.1 aminoacylation ribozyme variant] | 0.643 | 0.962 | 0.993 | 0.703 | 1 | 1.01 |
| CUACUUCAAACAACCGGUCUU [Fam1A.1 aminoacylation ribozyme variant] | 0.875 | 0.871 | 1.32 | 0.686 | 1.05 | 0.899 |
| CUACUUCAAACAACCGUUCUG [Fam1A.1 aminoacylation ribozyme variant] | 0.558 | 0.625 | 0.723 | 0.611 | 0.515 | 0.676 |
| CUACUUCAAACAAGCGCUCUG [Fam1A.1 aminoacylation ribozyme variant] | 0.571 | 0.852 | 0.868 | 0.654 | 0.842 | 0.86 |
| CUACUUCAAACAAGUGGUCUG [Fam1A.1 aminoacylation ribozyme variant] | 0.734 | 0.885 | 0.968 | 0.7 | 0.516 | 0.919 |
| CUACUUCAAACAAUAGGACUG [Fam1A.1 aminoacylation ribozyme variant] | 0.544 | 0.585 | 0.633 | 0.6 | 0.515 | 0.625 |
| CUACUUCAAACAAUAGGGCUG [Fam1A.1 aminoacylation ribozyme variant] | 0.8 | 0.523 | 0.844 | 0.557 | 0.391 | 0.631 |
| CUACUUCAAACAAUCCGUCGG [Fam1A.1 aminoacylation ribozyme variant] | 1.23 | 0.901 | 0.947 | 0.867 | 0.636 | 0.98 |
| CUACUUCAAACAAUCCGUCUA [Fam1A.1 aminoacylation ribozyme variant] | 1.07 | 0.651 | 0.801 | 0.611 | 0.596 | 0.88 |
| CUACUUCAAACAAUCGAUCAG [Fam1A.1 aminoacylation ribozyme variant] | 1.15 | 0.659 | 0.554 | 0.497 | 0.617 | 0.654 |
| CUACUUCAAACAAUCGCGCUG [Fam1A.1 aminoacylation ribozyme variant] | 1.59 | 1.88 | 1.47 | 1.52 | 1.1 | 1.35 |
| CUACUUCAAACAAUCGCUAUG [Fam1A.1 aminoacylation ribozyme variant] | 1.32 | 0.878 | 0.99 | 0.958 | 0.755 | 0.973 |
| CUACUUCAAACAAUCGCUCGG [Fam1A.1 aminoacylation ribozyme variant] | 0.822 | 0.768 | 1.02 | 0.763 | 0.747 | 0.954 |
| CUACUUCAAACAAUCGGACUC [Fam1A.1 aminoacylation ribozyme variant] | 5.7 | 0.624 | 0.675 | 0.563 | 2.57 | 0.7 |
| CUACUUCAAACAAUCGGCUUG [Fam1A.1 aminoacylation ribozyme variant] | 2.59 | 1.21 | 1.27 | 1.1 | 2.53 | 1.35 |
| CUACUUCAAACAAUCGGUCAU [Fam1A.1 aminoacylation ribozyme variant] | 4.39 | 0.892 | 0.892 | 0.666 | 1.88 | 1.01 |
| CUACUUCAAACAAUCGGUCGA [Fam1A.1 aminoacylation ribozyme variant] | 14.9 | 0.992 | 0.884 | 0.807 | 6.82 | 0.974 |
| CUACUUCAAACAAUCGUUCUA [Fam1A.1 aminoacylation ribozyme variant] | 1.08 | 0.559 | 0.582 | 0.545 | 0.631 | 0.801 |
| CUACUUCAAACAAUUGGUGUG [Fam1A.1 aminoacylation ribozyme variant] | 1.52 | 1.62 | 1.19 | 1.24 | 1.23 | 1.12 |
| CUACUUCAAACACUCCGUCUG [Fam1A.1 aminoacylation ribozyme variant] | 0.78 | 0.727 | 0.772 | 0.845 | 0.771 | 0.869 |
| CUACUUCAAACAGUCGGUAUG [Fam1A.1 aminoacylation ribozyme variant] | 0.447 | 0.532 | 0.6 | 0.587 | 0.554 | 0.552 |
| CUACUUCAAACAUUCAGUCUG [Fam1A.1 aminoacylation ribozyme variant] | 0.971 | 0.741 | 1.04 | 0.734 | 0.602 | 0.812 |
| CUACUUCAAACAUUCGGUAUG [Fam1A.1 aminoacylation ribozyme variant] | 0.64 | 1.05 | 0.968 | 0.993 | 0.924 | 1.12 |
| CUACUUCAAACAUUCGGUGUG [Fam1A.1 aminoacylation ribozyme variant] | 8.08 | 1.73 | 1.4 | 1.82 | 1.39 | 1.51 |
| CUACUUCAAACAUUGGGUCUG [Fam1A.1 aminoacylation ribozyme variant] | 0.555 | 0.868 | 0.914 | 0.944 | 0.716 | 0.977 |
| CUACUUCAAACAUUUGGUCUG [Fam1A.1 aminoacylation ribozyme variant] | 0.677 | 0.802 | 1.13 | 0.873 | 0.678 | 0.984 |

| Sequence | self-aminoacylation [1] | self-aminoacylation [2] | self-aminoacylation [3] | self-aminoacylation [4] | self-aminoacylation [5] | self-aminoacylation [6] |
| --- | --- | --- | --- | --- | --- | --- |
| CUACUUCAAACCAUCGGCCUG [Fam1A.1 aminoacylation ribozyme variant] | 1.51 | 1.45 | 1.82 | 1.63 | 1.71 | 1.94 |
| CUACUUCAAACCAUCGGUCAG [Fam1A.1 aminoacylation ribozyme variant] | 0.853 | 0.488 | 0.67 | 0.609 | 0.762 | 0.771 |
| CUACUUCAAACCAUCGGUGUG [Fam1A.1 aminoacylation ribozyme variant] | 1.24 | 1.52 | 1.08 | 1.11 | 0.938 | 1.1 |
| CUACUUCAAACGAGCGGUCUG [Fam1A.1 aminoacylation ribozyme variant] | 0.761 | 0.689 | 0.8 | 0.943 | 0.477 | 1.02 |
| CUACUUCAAACGAUCGGCCUG [Fam1A.1 aminoacylation ribozyme variant] | 1.59 | 1.96 | 1.55 | 1.33 | 2.08 | 1.66 |
| CUACUUCAAACUAUCGAUCUG [Fam1A.1 aminoacylation ribozyme variant] | 0.945 | 0.596 | 0.736 | 0.57 | 0.369 | 0.728 |
| CUACUUCAAACUAUCGCUCUG [Fam1A.1 aminoacylation ribozyme variant] | 0.781 | 0.678 | 0.732 | 0.609 | 0.664 | 0.786 |
| CUACUUCAAACUAUCGGUUUG [Fam1A.1 aminoacylation ribozyme variant] | 0.88 | 0.829 | 0.944 | 0.748 | 0.697 | 0.961 |
| CUACUUCAAACUAUGGGUCUG [Fam1A.1 aminoacylation ribozyme variant] | 0.588 | 0.922 | 0.917 | 0.789 | 0.592 | 0.813 |
| CUACUUCAAAGAAUAGGUCUG [Fam1A.1 aminoacylation ribozyme variant] | 0.944 | 0.699 | 0.816 | 0.784 | 0.59 | 0.746 |
| CUACUUCAAAGAAUCGGUCGG [Fam1A.1 aminoacylation ribozyme variant] | 1.37 | 1.05 | 0.763 | 0.844 | 1.12 | 0.795 |
| CUACUUCAAAGAAUCGGUGUG [Fam1A.1 aminoacylation ribozyme variant] | 1.04 | 1.28 | 0.994 | 0.905 | 1.02 | 0.803 |
| CUACUUCAAAUAAUCAGUCUG [Fam1A.1 aminoacylation ribozyme variant] | 8.19 | 0.891 | 0.956 | 0.717 | 3.71 | 0.935 |
| CUACUUCAAAUAAUCGGCCUG [Fam1A.1 aminoacylation ribozyme variant] | 14.5 | 1.36 | 1.11 | 0.902 | 12 | 0.985 |
| CUACUUCAAAUCAUCGGUCUG [Fam1A.1 aminoacylation ribozyme variant] | 0.771 | 0.917 | 0.876 | 0.83 | 0.65 | 0.855 |
| CUACUUCAACCAAGCGGUCUG [Fam1A.1 aminoacylation ribozyme variant] | 0.739 | 0.942 | 1.02 | 0.907 | 0.8 | 0.954 |
| CUACUUCAACCAAUCGGUCCG [Fam1A.1 aminoacylation ribozyme variant] | 6.1 | 1.22 | 0.867 | 1.26 | 5.57 | 0.799 |
| CUACUUCAACCUAUCGGUCUG [Fam1A.1 aminoacylation ribozyme variant] | 1.32 | 0.79 | 1.01 | 1.03 | 1.02 | 0.884 |
| CUACUUCAAGCGAUCGGUCUG [Fam1A.1 aminoacylation ribozyme variant] | 0.917 | 0.799 | 0.77 | 0.769 | 0.654 | 0.781 |
| CUACUUCAAGGAAUCGGUCUG [Fam1A.1 aminoacylation ribozyme variant] | 8.77 | 1.97 | 1.54 | 1.64 | 3.64 | 1.42 |
| CUACUUCAAUCAAUCAGUCUG [Fam1A.1 aminoacylation ribozyme variant] | 16.5 | 0.946 | 0.942 | 0.809 | 6.4 | 0.86 |
| CUACUUCAAUCAAUCGGUCUU [Fam1A.1 aminoacylation ribozyme variant] | 19.8 | 1.35 | 1.23 | 1.07 | 10.6 | 1.11 |
| CUACUUCAAUCAAUCGGUGUG [Fam1A.1 aminoacylation ribozyme variant] | 7.44 | 1.83 | 1.18 | 1.19 | 4.96 | 1.27 |
| CUACUUCAAUCAAUCUGUCUG [Fam1A.1 aminoacylation ribozyme variant] | 1.25 | 0.57 | 0.599 | 0.539 | 0.721 | 0.597 |
| CUACUUCAAUCAAUGGGUCUG [Fam1A.1 aminoacylation ribozyme variant] | 0.579 | 0.912 | 0.889 | 0.801 | 0.627 | 0.809 |
